According to paper PMC5385344, “Large Diversity of Functional Nanobodies from a Camelid Immune Library Revealed by an Alternative Analysis of Next-Generation Sequencing Data” (Frontiers in Immunology, 2017):

Assays:
[1] = molecular target: full-length human RON expressed on HEK293T cells (HEK293T-hRON) (Homo sapiens, UniProt Q04912)
[2] = molecular target: Recombinant extracellular domain of human RON (rhRON) (human, UniProt Q04912)
Chain of Recombinant extracellular domain of human RON (rhRON) (Q04912 25-957): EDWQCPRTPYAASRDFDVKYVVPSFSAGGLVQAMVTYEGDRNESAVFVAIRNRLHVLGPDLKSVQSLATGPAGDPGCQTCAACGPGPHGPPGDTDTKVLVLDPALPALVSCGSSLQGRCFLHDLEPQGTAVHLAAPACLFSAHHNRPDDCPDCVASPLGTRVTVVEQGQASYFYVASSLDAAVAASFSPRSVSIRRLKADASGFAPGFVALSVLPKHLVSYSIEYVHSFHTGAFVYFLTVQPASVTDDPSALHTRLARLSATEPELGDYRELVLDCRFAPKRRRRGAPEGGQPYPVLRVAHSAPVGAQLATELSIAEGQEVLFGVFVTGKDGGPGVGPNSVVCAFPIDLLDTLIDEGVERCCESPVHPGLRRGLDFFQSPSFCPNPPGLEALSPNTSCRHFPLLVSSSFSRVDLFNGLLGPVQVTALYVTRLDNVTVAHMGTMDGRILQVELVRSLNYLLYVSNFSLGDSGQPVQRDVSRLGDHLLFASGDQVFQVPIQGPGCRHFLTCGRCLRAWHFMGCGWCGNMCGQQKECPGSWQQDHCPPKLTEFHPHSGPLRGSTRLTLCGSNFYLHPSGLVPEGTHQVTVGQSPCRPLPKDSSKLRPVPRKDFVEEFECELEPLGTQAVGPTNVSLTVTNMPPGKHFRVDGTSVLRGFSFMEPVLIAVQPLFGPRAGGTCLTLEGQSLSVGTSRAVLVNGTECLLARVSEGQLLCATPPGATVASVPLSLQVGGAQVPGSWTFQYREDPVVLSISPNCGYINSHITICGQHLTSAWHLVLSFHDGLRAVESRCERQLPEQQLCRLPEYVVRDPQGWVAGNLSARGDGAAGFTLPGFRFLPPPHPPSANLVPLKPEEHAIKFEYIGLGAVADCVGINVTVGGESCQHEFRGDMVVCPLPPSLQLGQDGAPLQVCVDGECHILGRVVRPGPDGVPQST

Chain of full-length human RON expressed on HEK293T cells (HEK293T-hRON) (Q04912 25-1400): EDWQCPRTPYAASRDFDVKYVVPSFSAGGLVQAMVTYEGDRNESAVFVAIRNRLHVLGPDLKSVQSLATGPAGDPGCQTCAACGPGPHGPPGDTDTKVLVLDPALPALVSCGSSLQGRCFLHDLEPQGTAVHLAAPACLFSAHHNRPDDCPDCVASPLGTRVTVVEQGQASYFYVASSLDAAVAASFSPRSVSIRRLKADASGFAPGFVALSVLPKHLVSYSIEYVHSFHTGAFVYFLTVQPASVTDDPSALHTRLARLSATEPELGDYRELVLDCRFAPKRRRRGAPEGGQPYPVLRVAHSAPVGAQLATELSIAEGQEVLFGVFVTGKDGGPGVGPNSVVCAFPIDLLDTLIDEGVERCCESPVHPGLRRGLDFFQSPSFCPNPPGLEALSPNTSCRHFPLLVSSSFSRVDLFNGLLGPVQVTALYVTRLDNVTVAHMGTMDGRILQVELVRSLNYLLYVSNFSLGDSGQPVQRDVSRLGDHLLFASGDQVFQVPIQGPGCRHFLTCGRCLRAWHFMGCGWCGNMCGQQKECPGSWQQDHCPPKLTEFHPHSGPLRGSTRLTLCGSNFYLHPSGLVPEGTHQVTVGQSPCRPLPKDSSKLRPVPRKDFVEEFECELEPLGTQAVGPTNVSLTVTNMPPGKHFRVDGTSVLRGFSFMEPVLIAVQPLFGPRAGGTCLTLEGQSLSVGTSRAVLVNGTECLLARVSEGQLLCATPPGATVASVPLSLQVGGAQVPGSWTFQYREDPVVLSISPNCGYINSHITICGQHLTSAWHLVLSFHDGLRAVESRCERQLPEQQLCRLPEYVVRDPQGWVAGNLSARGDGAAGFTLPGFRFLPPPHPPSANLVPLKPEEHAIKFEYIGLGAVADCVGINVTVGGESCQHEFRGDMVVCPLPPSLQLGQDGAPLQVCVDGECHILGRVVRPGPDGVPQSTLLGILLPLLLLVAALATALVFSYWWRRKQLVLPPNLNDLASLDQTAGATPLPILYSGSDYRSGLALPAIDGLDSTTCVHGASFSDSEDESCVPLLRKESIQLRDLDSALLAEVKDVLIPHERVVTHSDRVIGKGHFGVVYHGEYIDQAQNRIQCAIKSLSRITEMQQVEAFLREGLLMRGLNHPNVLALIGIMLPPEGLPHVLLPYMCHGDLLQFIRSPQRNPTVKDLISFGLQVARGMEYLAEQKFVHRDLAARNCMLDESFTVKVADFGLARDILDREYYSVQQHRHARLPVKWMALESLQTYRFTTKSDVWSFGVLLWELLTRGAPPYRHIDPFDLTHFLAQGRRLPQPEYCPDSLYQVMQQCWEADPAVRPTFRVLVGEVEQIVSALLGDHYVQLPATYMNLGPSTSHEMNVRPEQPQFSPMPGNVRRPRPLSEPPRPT

Row | binding result [1] | binding result [2] | Binder
1 | binds | binds | 2C01 (VHH) VHH: EVQLVESGGGLVQAGGSLRLSCAPSERTFRSDVMGWFRQAPGRGREFVAAIAENGDILTRFEGSAKGRFTISRDNANDTVYLQMSSLKPEDTAIYYCAARWGTITTVSHQYHFWGQGTQVTVSS
2 | – | binds | KY704065 (VHH) VHH: EVQLVESGGGLVQAGGSLRLSCAVSNTVFRLRTMDWYRQAPEKRREWVATITSDGSTDYVGAVKGRFTISRDNAKSTMYLQMNNVKPEDTAVYYCYTANFWGQGTLVTVSS
3 | binds | binds | KY704038 (VHH) VHH: EVQLVESGGGLVQAGGSLRLSCASSGIAFRLRTMDWYRQAPGNQREWVATITSDYSTDYADSVKGRFTISRDNAQNTVYLQMNSLKPEDTAVYYCHAGGVVWGQGTLVTVSS
4 | binds | binds | KY704042 (VHH) VHH: EVQLVESGGGLVQAGGSLRLSCAASGRSFGSYHMGWFRQALGKEREFVAAISSGGGLLDYEDSVKGRFTISRDNAKNTVYLQMNSLTPEDTAVYYCAATARVWGSWFTSDYDYWGQGTLVTVSS
5 | binds | binds | 8G04 (VHH) VHH: EVQLVESGGGLVQAGGSLRLSCAASGRTFSVYPMGWFRQAPGKEREFVATISRRGAISYYQDSVKGRFTISRDSANDTVYLQMNSLRPEDTAVYYCAQYKASSSSYTRGRPDEIVYWGQGTQVTVSS
6 | binds | binds | 11G06 (VHH) VHH: EVQLVESGGGLVQPGGSLRLSCAASGSIFSVNAMGWYRQAPGKQRELVASMVSGRSPAYADSVKGRFTISRDNAENTVYLQMNSLKPEDTAVYYCNIKGEYYSRSQYNVWGQGTQVTVSS
7 | binds | binds | 8B01 (VHH) VHH: EVQLVESRGGTVQAGGSLRLSCAASGRTFSNYAAGWFRQAPGKEREFVAGISAKGGVTYYVDFVKGRFTISRDNAKNTVYLQMNSLKPEDTAVYYCAADGSYGTILATIAENSRISLLKDWGQGTLVTVSS
8 | binds | binds | 2F08 (VHH) VHH: EVQLVESGGGLVQAGGSLRLSCAASGRYPMGWFCQAPGGEREFVAAISRSGASTYYADSVKGRFTIARDSAKNTVYLEMNSLKPEDTAVYYCAAKENYYGDYGLAQNYDYWGQGTQVTVSS
9 | binds | binds | KY704039 (VHH) VHH: EVQLVESGGGLVQAGGSLRLTCAASGNFFNIITMGWFRQAPGKERELVAVDTAGRSISYLDSVKGRFTIVRDNAKNTVILEMNSLTPEDTAVYYCYATGHRSVTGGIYVTWGQGTLVTVSS
10 | binds | binds | 2B10 (VHH) VHH: EVQLVESGGGLVQAGGSLRLSCATSGISFRLSNMGWYRQAPGKSREFVAEITSGGNWNYADSVKGRFTISRDNAKSTVYLQMNSLKPEDTGVYYCNRLGTPLWGQGTQVTVSS

The next lines start with the binder.

Row | Binder | binding result [1] | binding result [2]
11 | 8C03 (VHH) VHH: EVQLVESGGGFVQAGGSLRLSCAASVRIAMGWFRQAPGKEREFVARISASGGSTEYADSVKGRFTISRDSSKSTAYLQMNSLKPEDTAVYYCAARLWNQREYPYWGQGTQVTVSS | binds | binds
12 | 11F03 (VHH) VHH: EVQLVESGGGLVQAGGSLRLSCVVSGIYFRLYTMNWYRQALGKQREYVAMITNDGSTNYGASIKGRFTISRDNAKNTVYLQMNNLNPEDTAVYYCNAHDYWGQGTQVTVSS | binds | binds
13 | 2F12 (VHH) VHH: EVQLVESGGGLVQAGGSLRLSCAASGSSTYEMGWFRQAPGKEREFVAGINWNGGRTYYADSVKGRFTISRDNAKMTVYLQMNSLKPEDTAAYYCSAAYGLRDAFRMYRSEYPYWGQGTQVTVSS | binds | binds
14 | 2C11 (VHH) VHH: EVQLVESGGGLVQPGGSLRLSCAASGFTFNYYWMYWVRQRPGKGLEWVSAINTGGGTTDYADSVKGRFTISRDNAKSTLYLQMDSLKSEDTAVYYCAKDRRRLIRSEYDYLGQGTQVTVSS | binds | binds
15 | 11G10 (VHH) VHH: EVQLVESGGGSVQAGGSLRLSCAASGRVAMGWFRQAPGKEREFVAAISASGGSSSYADSVKGRFTISRDSAKSTVYLQMNSLEPEDTAVYYCAARARTLGWVSADVSAYDYWGQGTQVTVSS | binds | binds
16 | KY704063 (VHH) VHH: EVQLVESGGGLVQPGGSLTLSCVAYGITVPDYPIGWFRQSPGKEREGVSCIRRSGGRIVYSDSAKGRFNTSRDNAENTVYLQMNSLAPEDTAVYYCATKCMVEFGDTTYSDYAGLNYWGKGTLVTVSS | – | binds
17 | 2A02 (VHH) VHH: EVQLVESGGGTVKAGGSLRLSCAAPRRYHMGWFRQAPGKEREFVTAISSSGGSTSYADSVKGRFTISRDSAKSTVYLQMNSLKPEDTAVYFCAARSGLWMATSTQGHYDYWGQGTQVTVSS | binds | binds
18 | 8D02 (VHH) VHH: EVQLVESGGGLVQTGGSLRLSCAASGLTFSDYAMGWFRQAAGKEREFVGVISWGGRHTYYGDFAKGRFTISRENSKNTVYLQMNSLKPEDTAVYTCARKRGMADIAYTHATSYDYWGQGTQVTVSS | binds | binds
19 | 11G07 (VHH) VHH: EVQLVESGGGLVQAGGSLRLSCAASGRSFSGDTMGWFLQAPGKEREFVAGINWSSRSTNYADSVKGRFTISRDNAKNTVYLQMNTLKPEDTAVYYCAAGPPSPYIYSRPDLYTYWGQGTQVTVSS | binds | binds
20 | 2D04 (VHH) VHH: EVQLVESGGGLVQAGGSLRLSCAASGRIFSVYRVGWFRQAPGKEREIVASINNRNGASTFYADSVKGRFTISRDSAKNTVYLQMRSLRPEDTAVYYCAARDQGTTEYHYWGQGTLVTVSS | binds | binds
21 | 8E08 (VHH) VHH: EVQLVESGGGLVQPGGSLRLSCAASGFTLDNHAIGWFRRAPGKERERIGCISSSSGTTAYADSVEGRFTISRDNAKNTVYLQMNSLKPEDTAVYYCAARFQGGFLGCTFAPQTFGYWGQGTQVTVSS | binds | binds
22 | KY704051 (VHH) VHH: EVQLVESGGGLVQPGGSLRLSCAASGFAFSYYYMYWVRQAPGKGLEWVSRISPGGGTTYYADSVKGRFTISRDNAKNTLYLQMNSLNSEDTAVYYCAKDNRRLIDSGAYDYRGQGTLVTVSS | binds | –
23 | 11D08 (VHH) VHH: EVQLVESGGGLVQPGGSLRLSCAASGFTFSSYWMYWVRQAPGKGLEWVSAISPASGSVDYIDSVKGRFTISRDNAQNTLYLRMNSLKSEDTAIYYCAKDSRRLIRSNYETFGLGTQVTVSS | binds | binds
24 | 2A01 (VHH) VHH: EVQLVESGGGLVQAGGSLRLSCAASSRTFSTYPMAWFRQAPGKEREFVATISRGGITSYYADSVKGRFTISRDNAKNTVYLQMNSLKPEDTAVYYCAQYKASATAYTRGRPDEIVHWGQGTQVTVSS | binds | binds
25 | 5B04 (VHH) VHH: EVQLVKSGGGLVQVGGSLRLSCAASGRTFSSYAMGWFRQAPGKERELVAAINWNGGRTYYADFVKGRFTISRDNAKNTVYLQMNSLKPEDTAVYYCAAGHLTSTGVLHPADYYNWDEYDYWGQGTQVTVSS | binds | binds
26 | 11B09 (VHH) VHH: EVQLVESGGGLVQAGGSLRLSCAASGRTFSNYAMGWFRQAPGKERDFVAAIDWSGDSISYENTVKGRFTISRDNAKNTMYLQMNSLKPEDTAVYFCATRSVGGISTLRRRYDYWGQGTLVTVSS | binds | binds
27 | 11A09 (VHH) VHH: EVQLVESGGGLVQPGGSLRLSCAASGFTFSSYWMYWVRQAPGKGLEWVSAVNTGGGTTDYADSVKGRFTISRDNAKDTLYLQMNSLKYEDTAVYYCARDQRRYIRTTYDYHGQGTLVTVSS | binds | binds
28 | 5B10 (VHH) VHH: EVQLVESGGGLVQAGGSLRLSCATSGRYVMGWFRQAPGQEREFVTSISRSGGSTTYADSVKGRFTISRDSAENTVYLQMNSLKPEDTAVYYCAAWSYYGVAYTSTTSPDYWGQGTLVTVSS | binds | binds
29 | KY704041 (VHH) VHH: EVQLVESGGGLVQAGGSLRLSCAASGRAFSSYAMGWFRQAPGKEREFVAVISGRGGVTYYAASVKGRFTISRDNAKNTVLLQMSSLKPEDTGVYYCAAGPNIGVLTDPAYSGGDWGQGTLVTVSS | binds | binds
30 | 5F06 (VHH) VHH: EVQLVESGGGLVQAGGSLGLSCAASGRVAMGWFRRPPGQERDFVAAISASGATTYYADSVKGRFTISRDSAKTTVYLQMNSLKPEDTAVYYCAARLSWSSDYRSGGSYEHWGQGTQVTVSS | binds | binds
